In patent US20250084174A1 (AstraZeneca / MedImmune, published 2025):
Where two headings read alike, the source gives them in different places.

Experiments:
cynomolgus CCR9 [1] = target: T1, cynomolgus CCR9 (cynomolgus, UniProt Q0H741 1-369); assay: binding to HEK cells expressing cynomolgus CCR9, fluorescence counts (FL1 Counts) against Log M
T1 construct: Overexpressed on HEK cells, or endogenous on cynomolgus PBMC; also called cynomolgus CCR9A; Cyno HEK
T1 sequence: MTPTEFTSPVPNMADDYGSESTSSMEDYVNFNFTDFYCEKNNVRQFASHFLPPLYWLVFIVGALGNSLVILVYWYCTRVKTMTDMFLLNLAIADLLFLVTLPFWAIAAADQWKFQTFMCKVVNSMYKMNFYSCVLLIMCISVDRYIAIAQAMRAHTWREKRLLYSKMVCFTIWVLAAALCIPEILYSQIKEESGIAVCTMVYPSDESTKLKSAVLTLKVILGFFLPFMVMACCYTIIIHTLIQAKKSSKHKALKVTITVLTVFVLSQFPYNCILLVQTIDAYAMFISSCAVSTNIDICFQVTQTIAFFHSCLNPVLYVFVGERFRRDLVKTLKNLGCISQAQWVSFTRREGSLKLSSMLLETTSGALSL

CCR8 [2] = target: T2, CCR8 (UniProt P51685 1-355, limits assumed); assay: binding to cells expressing CCR8, fluorescence counts (FL1 Counts) against Log M
T2 construct: whole, on cells; The cell line is not described

CXCR2 = target: T3, CXCR2 (UniProt P25025 1-360, limits assumed); assay: binding to cells expressing CXCR2, fluorescence counts (FL1 Counts) against Log M
T3 construct: whole, on cells; The cell line is not described
T3 sequence (looked up): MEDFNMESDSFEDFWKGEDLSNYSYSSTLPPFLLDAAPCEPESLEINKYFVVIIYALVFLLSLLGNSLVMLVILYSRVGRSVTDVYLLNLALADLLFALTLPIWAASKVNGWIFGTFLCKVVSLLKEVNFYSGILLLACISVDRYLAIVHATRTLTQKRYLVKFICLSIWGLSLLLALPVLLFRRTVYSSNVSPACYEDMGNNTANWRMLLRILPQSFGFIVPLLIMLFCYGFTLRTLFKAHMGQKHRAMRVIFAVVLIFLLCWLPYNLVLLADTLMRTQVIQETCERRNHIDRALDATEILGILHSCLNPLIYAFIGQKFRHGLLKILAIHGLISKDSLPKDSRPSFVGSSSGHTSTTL

CCR5 [3] = target: T4, CCR5 (UniProt P51681 1-352, limits assumed); assay: binding to cells expressing CCR5, fluorescence counts (FL1 Counts) against Log M
T4 construct: whole, on cells; The cell line is not described

CXCR1 = target: T5, CXCR1 (UniProt P25024 1-350, limits assumed); assay: binding to cells expressing CXCR1, fluorescence counts (FL1 Counts) against Log M
T5 construct: whole, on cells; The cell line is not described
T5 sequence (looked up): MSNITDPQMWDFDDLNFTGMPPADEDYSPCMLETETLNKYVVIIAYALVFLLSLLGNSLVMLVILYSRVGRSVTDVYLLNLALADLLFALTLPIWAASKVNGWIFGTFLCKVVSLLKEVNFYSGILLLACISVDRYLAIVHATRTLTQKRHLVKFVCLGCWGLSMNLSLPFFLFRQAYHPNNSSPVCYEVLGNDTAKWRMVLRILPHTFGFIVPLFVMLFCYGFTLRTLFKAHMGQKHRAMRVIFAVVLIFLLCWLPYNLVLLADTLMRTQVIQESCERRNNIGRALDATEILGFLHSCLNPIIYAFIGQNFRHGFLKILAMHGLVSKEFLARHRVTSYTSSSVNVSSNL

human CCR9A [4] = target: T6, human CCR9A (human, UniProt P51686 1-369); assay: binding to HEK cells overexpressing human CCR9A, MFI against [Ab] ug/ml; Parental HEK stays at about 0
T6 construct: Overexpressed on HEK cells; also called Hu A HEK; hCCR9 isoform A
T6 sequence: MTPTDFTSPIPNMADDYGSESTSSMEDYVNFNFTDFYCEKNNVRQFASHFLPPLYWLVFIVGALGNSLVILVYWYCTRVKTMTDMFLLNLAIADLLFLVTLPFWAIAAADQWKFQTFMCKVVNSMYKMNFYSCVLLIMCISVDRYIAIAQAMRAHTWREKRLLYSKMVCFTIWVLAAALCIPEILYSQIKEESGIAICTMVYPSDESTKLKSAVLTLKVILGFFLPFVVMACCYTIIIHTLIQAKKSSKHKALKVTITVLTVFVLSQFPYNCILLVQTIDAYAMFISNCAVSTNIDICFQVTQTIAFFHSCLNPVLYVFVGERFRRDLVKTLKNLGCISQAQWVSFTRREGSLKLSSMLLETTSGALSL
Method: (§1) The antibody AB1020243 (hybridoma mIgG) was also tested for binding to different forms of CCR9. Briefly, test antibody was diluted to a concentration of 60 μg/mL in assay buffer containing Hanks Balanced Salt solution (Sigma HB264) plus 0.1% Bovine Serum Albumin (Sigma A9576). Antibody was titrated in duplicate using single fold titrations over 24 points on a 384 black clear bottomed, non-binding microplate (Corning® NBS™ 3655) so that the final volume of test antibody was 10 μL per well. […]
(§2) Transfected HEK CCR9 overexpressing cell lines or un-transfected parental control cells were suspended in assay buffer at a concentration of 1×10⁶ cells per ml, and 10 μL of cells were dispensed to the assay plate containing test antibody and secondary antibody using a Multidrop dispenser (Thermo Scientific). Assay plates were incubated overnight at 4° C. and were read on a mirrorball® (laser scanning fluorescence cytometer; TTP-Labtech) using excitation at 488 nm and emission using the FL4channel (667-685 nm). Data was plotted in GraphPad Prism version 8.0.0 for Windows (GraphPad Software, San Diego, California USA) and expressed as Log (mg/mL antibody) v's Fluorescence (FL4) counts.

human CCR9B [5] = target: T7, human CCR9B (human, UniProt P51686 13-369); assay: binding to HEK cells overexpressing human CCR9B, MFI against [Ab] ug/ml; Parental HEK stays at about 0
T7 construct: Overexpressed on HEK cells; also called Hu B HEK; hCCR9 isoform B
T7 sequence: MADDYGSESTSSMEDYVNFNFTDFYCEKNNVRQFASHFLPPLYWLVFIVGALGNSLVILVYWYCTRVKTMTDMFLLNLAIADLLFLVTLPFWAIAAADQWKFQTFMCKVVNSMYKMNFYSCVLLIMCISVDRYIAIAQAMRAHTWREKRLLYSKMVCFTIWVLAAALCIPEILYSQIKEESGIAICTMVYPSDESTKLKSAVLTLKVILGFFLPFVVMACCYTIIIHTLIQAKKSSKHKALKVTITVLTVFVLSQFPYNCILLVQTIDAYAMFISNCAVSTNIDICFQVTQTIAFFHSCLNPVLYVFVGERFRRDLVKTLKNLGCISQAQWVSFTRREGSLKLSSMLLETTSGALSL
Method: as §1, §2

rat CCR9 [6] = target: T8, rat CCR9 (rat, UniProt Q8CH33 1-369); assay: binding to HEK cells overexpressing rat CCR9, MFI against [Ab] ug/ml
T8 construct: Overexpressed on HEK cells; also called Rat HEK
T8 sequence: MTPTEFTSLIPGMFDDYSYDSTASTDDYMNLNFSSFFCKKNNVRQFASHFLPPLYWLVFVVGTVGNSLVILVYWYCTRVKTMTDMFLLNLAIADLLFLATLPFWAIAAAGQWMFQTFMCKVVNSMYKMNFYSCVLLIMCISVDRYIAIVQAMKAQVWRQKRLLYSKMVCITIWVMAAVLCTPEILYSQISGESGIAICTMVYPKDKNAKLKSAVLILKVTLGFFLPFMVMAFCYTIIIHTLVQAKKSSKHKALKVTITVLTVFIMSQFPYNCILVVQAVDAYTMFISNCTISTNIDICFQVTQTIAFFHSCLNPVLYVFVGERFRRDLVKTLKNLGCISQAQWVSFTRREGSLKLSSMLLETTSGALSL
Method: as §1, §2

mouse CCR9 [7] = target: T9, mouse CCR9 (mouse, UniProt Q9WUT7 1-369); assay: binding to HEK cells overexpressing mouse CCR9, MFI against [Ab] ug/ml
T9 construct: whole, on cells; Overexpressed on HEK cells; also called mCCR9; Mouse HEK
T9 sequence (looked up): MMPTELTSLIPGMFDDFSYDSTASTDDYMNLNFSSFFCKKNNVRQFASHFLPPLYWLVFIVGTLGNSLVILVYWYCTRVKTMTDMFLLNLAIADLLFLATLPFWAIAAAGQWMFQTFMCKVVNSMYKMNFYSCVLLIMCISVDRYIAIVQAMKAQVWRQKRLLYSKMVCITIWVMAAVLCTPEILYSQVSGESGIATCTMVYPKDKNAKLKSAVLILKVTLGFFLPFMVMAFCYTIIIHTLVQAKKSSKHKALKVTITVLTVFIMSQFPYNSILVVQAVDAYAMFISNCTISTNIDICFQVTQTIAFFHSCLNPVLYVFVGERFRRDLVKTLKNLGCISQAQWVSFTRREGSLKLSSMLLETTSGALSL
Method: as §1, §2

CCR8 [8] = target: T2, CCR8; assay: binding to cells expressing CCR8, fluorescence counts (FL1 Counts) against Log M; remark: listed apart in the source
human CCR9A [9] = target: T6, human CCR9A; assay: binding to cells expressing human CCR9A, fluorescence counts (FL1 Counts) against Log M
CCR5 [10] = target: T4, CCR5; assay: binding to cells expressing CCR5, fluorescence counts (FL1 Counts) against Log M; remark: listed apart in the source
human CCR9B [11] = target: T7, human CCR9B; assay: binding to cells expressing human CCR9B, fluorescence counts (FL1 Counts) against Log M
cynomolgus CCR9 [12] = target: T1, cynomolgus CCR9; assay: cell-based or functional assay
rat CCR9 [13] = target: T8, rat CCR9; assay: cell binding by the methods of Example 4
mouse CCR9 [14] = target: T9, mouse CCR9; assay: cell binding by the methods of Example 4

T4 sequence (P51681 whole entry): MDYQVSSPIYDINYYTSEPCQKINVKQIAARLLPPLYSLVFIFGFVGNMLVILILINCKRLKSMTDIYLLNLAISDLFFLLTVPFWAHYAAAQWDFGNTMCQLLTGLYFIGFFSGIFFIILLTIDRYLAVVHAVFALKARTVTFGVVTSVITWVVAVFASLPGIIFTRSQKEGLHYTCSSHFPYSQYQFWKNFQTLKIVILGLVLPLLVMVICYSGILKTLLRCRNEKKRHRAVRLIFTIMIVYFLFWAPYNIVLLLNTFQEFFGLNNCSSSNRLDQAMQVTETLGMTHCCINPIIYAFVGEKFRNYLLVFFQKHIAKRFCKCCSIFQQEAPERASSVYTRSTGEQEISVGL
T2 sequence (P51685 whole entry): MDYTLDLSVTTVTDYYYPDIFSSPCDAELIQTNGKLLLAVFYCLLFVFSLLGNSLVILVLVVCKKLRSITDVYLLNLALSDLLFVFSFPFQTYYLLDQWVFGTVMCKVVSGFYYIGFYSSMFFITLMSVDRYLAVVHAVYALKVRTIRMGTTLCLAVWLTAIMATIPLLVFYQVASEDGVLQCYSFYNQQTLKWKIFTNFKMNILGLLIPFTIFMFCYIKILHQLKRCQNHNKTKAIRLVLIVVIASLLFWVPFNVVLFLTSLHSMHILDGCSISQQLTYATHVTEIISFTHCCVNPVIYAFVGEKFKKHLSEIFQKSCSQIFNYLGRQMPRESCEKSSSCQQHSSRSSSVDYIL

B1: AB1020243 afuc (chimeric parent antibody, afucosylated) (antibody, V domains shown)
VH: EVQLQQSGTVLARPGASVKMSCKASGYTFTSYWMHWVKQRPGQGLEWIGVIYPGNSDTRYNQKFKGKAKLTAVTSATTAYMELSSLTNEDSAVYYCTRDYYSNYVYYYAMDYWGQGTSVTVSS
VL: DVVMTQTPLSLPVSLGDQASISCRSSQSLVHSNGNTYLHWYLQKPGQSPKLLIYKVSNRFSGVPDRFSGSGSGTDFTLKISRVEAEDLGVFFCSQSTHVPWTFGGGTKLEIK
modifications: afucosylated form; in the LigandTracer assay DyLight 650 Maleimide on an engineered cysteine residue in the CH2 region
notes: Mouse variable domains; Called chimeric, with human IgG1 format stated for the LigandTracer assay; also called chimeric AB1020243; parent AB1020243
Question: B1 was tested. Which “EC50 (read off the curve)” value (cynomolgus CCR9 [1]) did it give?
Answer: ~0.6 nM

Question: Does B1 bind (CCR8 [2])?
Answer: no binding (tested: Log M about -6.5 (about 3e-7 M))

Question: Does B1 bind (CXCR2)?
Answer: no binding (tested: Log M about -6.9 (about 1e-7 M))

Question: Does B1 bind (CCR5 [3])?
Answer: no binding (tested: Log M about -6.5 (about 3e-7 M))

Question: Does B1 bind (CXCR1)?
Answer: no binding (tested: Log M about -6.9 (about 1e-7 M))

B2: AB1020243 (hybridoma mIgG) (antibody, V domains shown)
VH: EVQLQQSGTVLARPGASVKMSCKASGYTFTSYWMHWVKQRPGQGLEWIGVIYPGNSDTRYNQKFKGKAKLTAVTSATTAYMELSSLTNEDSAVYYCTRDYYSNYVYYYAMDYWGQGTSVTVSS
VL: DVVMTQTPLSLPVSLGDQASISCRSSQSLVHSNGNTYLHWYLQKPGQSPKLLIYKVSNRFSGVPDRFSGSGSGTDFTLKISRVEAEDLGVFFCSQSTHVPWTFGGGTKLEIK
notes: Mouse IgG from the hybridoma; also called clone ZY10O1-A02
Question: Which results are given for B2?
Answer: binding result (human CCR9A [4]): binds; binding result (human CCR9B [5]): binds; binding result (rat CCR9 [6]): no binding (tested: 10 ug/ml); binding result (mouse CCR9 [7]): no binding (tested: 10 ug/ml)

B3: AB243LO0326 (antibody, V domains shown)
VH: QVQLVQSGAEVKKPGASVKVSCKASGYTFTSYWMHWVRQAPGQGLEWIGVIYPGNSDTRYNQKFKGRVTITRDTSASTAYMELSSLRSEDTAVYYCTRDYYSNYVYYYAMDYWGQGTTVTVSS
VL: DIVMTQTPLSLPVTPGEPASISCRSSQSLVHPNRNTYLHWYLQKPGQSPQLLIYKVSNRFSGVPDRFSGSGSGTDFTLKISRVEAEDVGVYYCSQSTHVPWTFGQGTKLEIK
modifications: afucosylated form; in the LigandTracer assay DyLight 650 Maleimide on an engineered cysteine residue in the CH2 region
notes: Full chains are not tied to the tested lot
Question: Does B3 bind (CCR8 [8])?
Answer: no binding (tested: Log M about -6.9 (about 1e-7 M))

Question: Does B3 bind (human CCR9A [9])?
Answer: binds

Question: Does B3 bind (CCR5 [10])?
Answer: no binding (tested: Log M about -6.9 (about 1e-7 M))

Question: Does B3 bind (human CCR9B [11])?
Answer: binds

Question: What about the “EC50, killing of cynomolgus CD4+CCR9+ PBMC” value (cynomolgus CCR9 [12]) of the same binder?
Answer: 0.03 nM

Question: Does B3 bind (rat CCR9 [13])?
Answer: no binding

Question: Does B3 bind (mouse CCR9 [14])?
Answer: no binding

Question: Does B3 bind (CXCR2)?
Answer: no binding (tested: Log M about -6.9 (about 1e-7 M))

Question: Does B3 bind (CXCR1)?
Answer: no binding (tested: Log M about -6.9 (about 1e-7 M))

B4: AB243LO0331 (antibody, IgG1, V domains shown)
VH: QVQLVQSGAEVKKPGASVKVSCKASGYTFTSYWMHWVRQAPGQGLEWIGVIYPGNSDTRYNQKFKGRVTITRDTSASTAYMELSSLRSEDTAVYYCTRDYYSNYVYYYAMDYWGQGTTVTVSS
VL: DIVMTQTPLSLPVTPGEPASISCRSSQSLVHSNTNTYLHWYLQKPGQSPQLLIYKVSNRFSGVPDRFSGSGSGTDFTLKISRVEAEDVGVYYCSQSTHVPWTFGQGTKLEIK
modifications: afucosylated form
Question: What does the source list for B4?
Answer: binding result (rat CCR9 [13]): no binding; binding result (mouse CCR9 [14]): no binding
